# Tests used:
# [1] = molecular target: NC41 Fab; assay: BIAcore SPR; NC41 Fab immobilised, scFv as analyte (apparent, multivalent)
# [2] = molecular target: NC41 Fab; assay: sedimentation equilibrium of the isolated complex
# [3] = molecular target: NC41 Fab; assay: gel filtration FPLC on Superose 12
# [4] = molecular target: NC41 Fab; assay: BIAcore SPR; NC41 Fab immobilised, scFv as analyte
# [5] = molecular target: NC10 scFv-15 monomer; assay: BIAcore SPR; scFv-15 monomer immobilised (2000 RU), Fab′ as analyte
# [6] = molecular target: NC10 scFv-0 trimer (VH-VL); assay: BIAcore SPR; scFv-0 trimer immobilised (450 RU), Fab′ as analyte
# [7] = molecular target: NC10 scFv-15 monomer; assay: BIAcore SPR; scFv-15 monomer immobilised (~2000 RU), from the RU increase
# [8] = molecular target: NC10 scFv-10 dimer; assay: BIAcore SPR; scFv-10 dimer immobilised (200 RU), Fab′ as analyte
# [9] = molecular target: NC10 scFv-5 dimer; assay: BIAcore SPR; scFv-5 dimer immobilised (200 RU), Fab′ as analyte
# [10] = molecular target: Anti-idiotype 3-2G12 Fab′; assay: sedimentation equilibrium of the isolated complex, fitted as a single species
# [11] = molecular target: Anti-idiotype 3-2G12 Fab′; assay: sedimentation equilibrium of the isolated complex
# [12] = molecular target: Anti-idiotype 3-2G12 Fab′; assay: BIAcore SPR; 3-2G12 Fab′ immobilised (1000 RU), scFv as analyte
substance,measurement,setting,value
11-1G10 scFv-0 trimer,koff,[1],8.2e-05 s⁻¹
same,molecular mass of complex (experimental),[2],262000 Da
same,apparent molecular mass of complex,[3],245 kDa
11-1G10 scFv-15 monomer,koff,[4],0.00032 s⁻¹
same,molecular mass of complex (experimental),[2],78600 Da
same,apparent molecular mass of complex,[3],79 kDa
Anti-idiotype 3-2G12 Fab′,Ka,[5],2.5e+08 M⁻¹
same,koff,[5],0.0021 s⁻¹
same,kon,[5],500000 M⁻¹ s⁻¹
same,Ka,[6],1.13e+08 M⁻¹
same,koff,[6],0.0023 s⁻¹
same,kon,[6],260000 M⁻¹ s⁻¹
same,percent of immobilised protein active,[7],< 10%
same,Ka,[8],1.3e+08 M⁻¹
same,koff,[8],0.0029 s⁻¹
same,kon,[8],370000 M⁻¹ s⁻¹
same,Ka,[9],1.06e+08 M⁻¹
same,koff,[9],0.0033 s⁻¹
same,kon,[9],350000 M⁻¹ s⁻¹
NC10 scFv-0 trimer (VH-VL),"molecular mass of complex (measured, apparent average)",[10],212000 Da
NC10 scFv-5 dimer,molecular mass of complex (measured),[11],156000 Da
NC10 scFv-15 monomer,Ka,[12],4.2e+08 M⁻¹
same,koff,[12],0.00174 s⁻¹
same,kon,[12],740000 M⁻¹ s⁻¹
same,molecular mass of complex (measured),[11],77900 Da
